The Human Domainome abundance scans (Beltran et al. 2025)

B1: WW domain-binding protein 4, residues 8 to 43; numbered along this chain, O75554 (parent)
chain: QPKKFCDYCKCWIADNRPSVEFHERGKNHKENVAKR

Variants of: B1
Test: abundance fitness (aPCA) (normalised: wild type 0, dead -1); higher = more abundant; growth selection in yeast, the domain comes from the species named
Details: Homo sapiens

Abundance fitness of substitutions, site by site:
K30: R 0.049; T 0.201; M -0.177; G -0.019; Q -0.02; D -0.265; E 0.053; I 0.085; Y -0.391; C 0.022; P -0.246; A -0.101; W -0.345; L -0.061; V -0.036; S -0.117
N32: C -0.158; I -0.446; S -0.086; K -0.111; H -0.172; F -0.405; V -0.294; A 0.038; M -0.228; Y -0.289; L -0.166; D -0.49; W -0.115; P -0.473; Q 0.035; R -0.1; T -0.142
A14: V -0.39; W -0.338; Q -0.264; S -0.343; C -0.169; L -0.558; R -0.381; E -0.048; G -0.286; K -0.251; D -0.2; P -0.19; M -0.602
R17: S 0.052; V 0.008; H -0.148; L -0.015; K -0.098; G 0.005; C 0.118; E -0.011; N -0.019; P 0.253; W -0.389; Y -0.235; Q -0.008; M 0.176; T -0.03; D 0.068; A 0.036
E31: S -0.326; M -0.065; W -0.955; H -0.29; V -0.11; A 0.01; G -0.153; N -0.346; T -0.259; D -0.093; P -0.332; R -0.103; L -0.229; K -0.107; Q -0.072; C -0.302
G26: P -0.547; W -0.277; S 0.04; D 0.015; R -0.228; C -0.197; A -0.072; I -1; T -0.123; V -0.18; Q 0.038; H 0.08; E 0.153; L -0.28; M 0.057; K -0.257
E24: G -0.364; K -0.187; D -0.372; T -0.549; P -0.915; F -0.181; M -0.451; L -0.614; R -0.497; W -0.413; Y -0.183; N -0.163; A -0.303; S -0.232
I13: A -0.531; C -0.427; R -0.532; H -0.368; L -0.236; T -0.261; Y 0.334; E -0.226; G -0.449; Q -0.529; D -0.171; P -0.488; N -0.308; K -0.853; V -0.089; M 0.209; S -0.473
N16: R -0.141; H -0.105; A 0.135; Y -0.06; P 0.018; W -0.268; T 0.185; S -0.177; E 0.027; G 0.151; I 0.321; K 0.102; L -0.175; F -0.143; V -0.14; M 0.024; Q -0.073; D -0.233
E21: F -0.437; R -0.05; K 0.007; D -0.15; V -0.289; S -0.167; T -0.034; M -0.332; W -0.295; C -0.36; I -0.71; A -0.163; N -0.312; P -0.467; H -0.475; Q -0.074; L -0.19
W12: T -0.066; R -0.537; L -0.087; P 0.188; S -0.261; K -0.557; I 0.139; Q 0.077; M 0.075
D15: K -0.367; S -0.236; R -0.328; C -0.48; A -0.145; Q -0.262; P -0.186; V -0.313; T -0.075; G -0.09; F -0.235; L -0.332; W -0.391; M -0.128; H -0.37; N -0.249
H23: F -0.633; G -0.689; S -0.549; W -0.601; L -0.838; C -0.561; N -0.967; A -0.739; E -0.6; T -0.717; D -0.387; V -0.895; P -0.443; I -0.884; R -0.724; M -0.569; K -0.44
K27: E 0.036; Q -0.032; R -0.08; A 0.026; M -0.115; L -0.114; F -0.189; G -0.096; D -0.192; S -0.128; P -0.226; W -0.218
R25: L -0.106; W -0.331; C -0.133; K 0; Y -0.357; D 0.099; A 0.078; S -0.037; Q 0.049; P -0.428; M 0.079; G 0.039; T 0.014; E -0.039; V 0.003
N28: L 0.046; E -0.015; P -0.047; R 0.149; V -0.016; S -0.001; T -0.102; W 0.147; Q -0.087; G 0.109; M 0.326; F 0.106; C -0.097
S19: V -0.451; R -0.574; T -0.079; W -0.672; L -0.467; D -0.13; G -0.3; F -0.797; E -0.245; C -0.516; Q -0.218; M -0.07; N -0.204; A -0.058; K -0.379; H -0.269
V33: A -0.006; D -0.22; E 0.022; F -0.182; G -0.22
P18: R -0.162; D -0.388; G -0.179; F -0.431; E -0.048; T -0.381; H -0.124; K -0.175; W -0.522; I -0.349; M -0.002; S -0.192; A -0.108; V -0.198; C -0.113; Y -0.194; N -0.177; Q -0.12; L -0.236
V20: M -0.015; W -0.189; A 0.05; G -0.272; I -0.275; T -0.183; Y -0.63; F -0.442; N -0.033; D -0.591; P -0.512; H -0.031; S -0.336; L -0.314; Q -0.254; R -0.226; C -0.574; E -0.127
F22: K -0.129; I -0.33; G 0.111; M 0.235; C 0.089; L 0.051; D 0.132; Y -0.224; R -0.075; P -0.061; V 0.085; N -0.035; S -0.01; A 0.09; E 0.07; Q 0.238; T 0.163
H29: E -0.325; A -0.309; D -0.995; N -0.444; K -0.562; S -0.542; Q -0.656; P -0.894; C -0.464; F -1; V -0.349; M -0.475; Y -0.736; R -0.626; W -0.481; T -0.63
